# Laboratory results taken from publication PMC4963090 (PLoS ONE, 2016).
# T1: head-only RSV F immunogen i-693 (Human respiratory syncytial virus A, …, S155C | S190F | V207L | S290C | S155C | S190F | V207L | S290C)
# T1 construct: RSV fusion (F) glycoprotein, subtype A strain A2, F2 segment of domain III, first monomer; numbers count on: PDB entry 4JHW; linker between F2 and F1; RSV fusion (F) glycoprotein, subtype A strain A2, F1 segment, first monomer; linker between the two identical monomers; RSV fusion (F) glycoprotein, subtype A strain A2, F2 segment of domain III, second monomer; RSV fusion (F) glycoprotein, subtype …
# T1 chain: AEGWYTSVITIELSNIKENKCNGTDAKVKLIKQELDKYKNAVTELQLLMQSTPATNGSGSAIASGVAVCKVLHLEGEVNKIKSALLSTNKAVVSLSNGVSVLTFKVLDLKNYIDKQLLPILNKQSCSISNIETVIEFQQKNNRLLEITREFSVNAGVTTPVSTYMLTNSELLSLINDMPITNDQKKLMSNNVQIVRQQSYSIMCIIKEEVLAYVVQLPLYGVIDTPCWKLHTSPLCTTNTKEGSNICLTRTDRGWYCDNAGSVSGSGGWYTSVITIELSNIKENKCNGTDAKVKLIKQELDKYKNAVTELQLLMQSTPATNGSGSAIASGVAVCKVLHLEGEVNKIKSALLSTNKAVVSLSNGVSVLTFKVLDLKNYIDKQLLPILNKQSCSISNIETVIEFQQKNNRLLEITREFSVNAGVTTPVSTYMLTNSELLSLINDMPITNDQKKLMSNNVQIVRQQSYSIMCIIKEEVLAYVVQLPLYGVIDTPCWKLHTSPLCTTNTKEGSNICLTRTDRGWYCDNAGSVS
# T2: head-only RSV F immunogen i-447 (Human respiratory syncytial virus A, …, S190F | S155C | S290C)
# T2 construct: RSV fusion (F) glycoprotein, subtype A strain A2, F1 segment of domain III (head); numbers count on: PDB entry 4JHW; linker; RSV fusion (F) glycoprotein, subtype A strain A2, F2 segment of domain III (head); MTQ-F1-GGPG-F2; A signal peptide for secretion was added; Tags are thrombin-cleavable: held by the His-tag or Strep-tag in BLI; said to be cleaved before SEC, EM and immunisation; also called …
# T2 chain: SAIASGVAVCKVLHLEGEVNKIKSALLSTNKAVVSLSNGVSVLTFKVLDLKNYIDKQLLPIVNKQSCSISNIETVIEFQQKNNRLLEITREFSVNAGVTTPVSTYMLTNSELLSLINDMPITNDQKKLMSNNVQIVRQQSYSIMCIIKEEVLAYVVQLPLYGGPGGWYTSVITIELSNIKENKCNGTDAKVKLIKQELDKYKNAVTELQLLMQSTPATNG
# T3: head-only RSV F immunogen i-273 (Human respiratory syncytial virus A, …, S155C | S190F | V207L | S290C | L258K | L273K)
# T3 construct: RSV fusion (F) glycoprotein, subtype A strain A2, F1 segment of domain III (head); numbers count on: PDB entry 4JHW; linker; RSV fusion (F) glycoprotein, subtype A strain A2, F2 segment of domain III (head); Circular permutant F1-GG-F2; A signal peptide for secretion was added; Tags are thrombin-cleavable: held by the His-tag in the kinetic BLI; said to be cleaved before SEC, EM and immunisation; …
# T3 chain: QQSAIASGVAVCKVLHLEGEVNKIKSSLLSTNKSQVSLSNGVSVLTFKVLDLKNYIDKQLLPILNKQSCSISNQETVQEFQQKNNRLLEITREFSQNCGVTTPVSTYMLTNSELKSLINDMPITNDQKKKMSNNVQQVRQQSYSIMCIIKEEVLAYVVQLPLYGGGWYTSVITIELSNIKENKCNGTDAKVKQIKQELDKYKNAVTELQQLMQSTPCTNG
# T4: head-only RSV F immunogen i-210 (Human respiratory syncytial virus A, …, S155C | S190F | V207L | S290C | L258K)
# T4 construct: RSV fusion (F) glycoprotein, subtype A strain A2, F1 segment of domain III (head); numbers count on: PDB entry 4JHW; linker; RSV fusion (F) glycoprotein, subtype A strain A2, F2 segment of domain III (head); linker to the foldon; bacteriophage T4 foldon trimerization domain (of fibritin); Circular permutant F1-GGSGG-F2-GGSGGSG-foldon; A signal peptide for secretion was added; Tags are …
# T4 chain: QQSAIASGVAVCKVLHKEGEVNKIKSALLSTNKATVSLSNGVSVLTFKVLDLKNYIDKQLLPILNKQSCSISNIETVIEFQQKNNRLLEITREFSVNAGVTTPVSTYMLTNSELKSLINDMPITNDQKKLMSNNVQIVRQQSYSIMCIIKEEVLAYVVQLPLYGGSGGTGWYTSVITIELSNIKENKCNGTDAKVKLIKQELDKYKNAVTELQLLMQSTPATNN
# Experiments:
# [1] = molecular target: head-only RSV F immunogen i-210 (respiratory syncytial virus subtype A, strain A2 | bacteriophage T4) (UniProt P03420); experiment: BLI; head-only variants (50 ug/ml) held on anti-His-tag (HIS1K) tips; Fabs in solution 0.016-0.5 uM; 30°C, PBS + 1% BSA; global 1:1 fit
# [2] = molecular target: head-only RSV F immunogen i-273 (respiratory syncytial virus subtype A, strain A2) (UniProt P03420); experiment: as above
# [3] = molecular target: head-only RSV F immunogen i-273 (respiratory syncytial virus subtype A, strain A2) (UniProt P03420); experiment: negative-stain electron microscopy; immunogens alone or mixed with D25 and/or motavizumab Fabs; 20 mM HEPES pH 7.0, 150 mM NaCl; uranyl formate; reference-free 2D class averages
# [4] = molecular target: T1, head-only RSV F immunogen i-693; experiment: BLI; head-only variants (50 ug/ml) held on anti-His-tag (HIS1K) tips; Fabs in solution 0.016-0.5 uM; 30°C, PBS + 1% BSA; global 1:1 fit; conditions: both partners purified
# [5] = molecular target: T2, head-only RSV F immunogen i-447; experiment: as above; conditions: both partners purified
# [6] = molecular target: T3, head-only RSV F immunogen i-273; experiment: as above; conditions: both partners purified
# [7] = molecular target: T4, head-only RSV F immunogen i-210; experiment: as above; conditions: both partners purified
Molecule,Kd [1],Kd [2],percent of particles with bound Fab [3],Kd [4],Kd [5],Kd [6],Kd [7]
motavizumab Fab,761 nM,1360 nM,< 10%,–,–,–,–
"motavizumab Fab (Fab, V domains shown, Antigenic site II-directed antibody; also called Fab motavizumab; source: HEK 293-F, co-transfected heavy and light chain plasmids; IgG on Protein A, digested with Lys-C or HRV3C protease, Fab purified by SEC) VH: QVTLRESGPALVKPTQTLTLTCTFSGFSLSTAGMSVGWIRQPPGKALEWLADIWWDDKKHYNPSLKDRLTISKDTSKNQVVLKVTNMDPADTATYYCARDMIFNFYFDVWGQGTTVTVSS VL: DIQMTQSPSTLSASVGDRVTITCSASSRVGYMHWYQQKPGKAPKLLIYDTSKLASGVPSRFSGSGSGTEFTLTISSLQPDDFATYYCFQGSGYPFTFGGGTKVEIK",–,–,–,6.5 nM,0.5 nM,–,–
"D25 Fab (Fab, V domains shown, Antigenic site Ø-directed antibody; also called Fab D25; source: HEK 293-F, co-transfected heavy and light chain plasmids; IgG on Protein A, digested with Lys-C or HRV3C protease, Fab purified by SEC) VH: QVQLVQSGAEVKKPGSSVMVSCQASGGPLRNYIINWLRQAPGQGPEWMGGIIPVLGTVHYAPKFQGRVTITADESTDTAYIHLISLRSEDTAMYYCATETALVVSTTYLPHYFDNWGQGTLVTVSS VL: DIQMTQSPSSLSAAVGDRVTITCQASQDIVNYLNWYQQKPGKAPKLLIYVASNLETGVPSRFSGSGSGTDFSLTISSLQPEDVATYYCQQYDNLPLTFGGGTKVEIK",–,–,–,9.9 nM,0.7 nM,33.3 nM,0.7 nM
